# According to ChEMBL document CHEMBL2073913, “Functional multidrug resistance protein (MRP1) lacking the N-terminal transmembrane domain” (J Biol Chem, 1998):
# B1: Multidrug resistance-associated protein 1 (Homo sapiens) (protein)
# chain: MALRGFCSADGSDPLWDWNVTWNTSNPDFTKCFQNTVLVWVPCFYLWACFPFYFLYLSRHDRGYIQMTPLNKTKTALGFLLWIVCWADLFYSFWERSRGIFLAPVFLVSPTLLGITMLLATFLIQLERRKGVQSSGIMLTFWLVALVCALAILRSKIMTALKEDAQVDLFRDITFYVYFSLLLIQLVLSCFSDRSPLFSETIHDPNPCPESSASFLSRITFWWITGLIVRGYRQPLEGSDLWSLNKEDTSEQVVPVLVKNWKKECAKTRKQPVKVVYSSKDPAQPKESSKVDANEEVEALIVKSPQKEWNPSLFKVLYKTFGPYFLMSFFFKAIHDLMMFSGPQILKLLIKFVNDTKAPDWQGYFYTVLLFVTACLQTLVLHQYFHICFVSGMRIKTAVIGAVYRKALVITNSARKSSTVGEIVNLMSVDAQRFMDLATYINMIWSAPLQVILALYLLWLNLGPSVLAGVAVMVLMVPVNAVMAMKTKTYQVAHMKSKDNRIKLMNEILNGIKVLKLYAWELAFKDKVLAIRQEELKVLKKSAYLSAVGTFTWVCTPFLVALCTFAVYVTIDENNILDAQTAFVSLALFNILRFPLNILPMVISSIVQASVSLKRLRIFLSHEELEPDSIERRPVKDGGGTNSITVRNATFTWARSDPPTLNGITFSIPEGALVAVVGQVGCGKSSLLSALLAEMDKVEGHVAIKGSVAYVPQQAWIQNDSLRENILFGCQLEEPYYRSVIQACALLPDLEILPSGDRTEIGEKGVNLSGGQKQRVSLARAVYSNADIYLFDDPLSAVDAHVGKHIFENVIGPKGMLKNKTRILVTHSMSYLPQVDVIIVMSGGKISEMGSYQELLARDGAFAEFLRTYASTEQEQDAEENGVTGVSGPGKEAKQMENGMLVTDSAGKQLQRQLSSSSSYSGDISRHHNSTAELQKAEAKKEETWKLMEADKAQTGQVKLSVYWDYMKAIGLFISFLSIFLFMCNHVSALASNYWLSLWTDDPIVNGTQEHTKVRLSVYGALGISQGIAVFGYSMAVSIGGILASRCLHVDLLHSILRSPMSFFERTPSGNLVNRFSKELDTVDSMIPEVIKMFMGSLFNVIGACIVILLATPIAAIIIPPLGLIYFFVQRFYVASSRQLKRLESVSRSPVYSHFNETLLGVSVIRAFEEQERFIHQSDLKVDENQKAYYPSIVANRWLAVRLECVGNCIVLFAALFAVISRHSLSAGLVGLSVSYSLQVTTYLNWLVRMSSEMETNIVAVERLKEYSETEKEAPWQIQETAPPSSWPQVGRVEFRNYCLRYREDLDFVLRHINVTINGGEKVGIVGRTGAGKSSLTLGLFRINESAEGEIIIDGINIAKIGLHDLRFKITIIPQDPVLFSGSLRMNLDPFSQYSDEEVWTSLELAHLKDFVSALPDKLDHECAEGGENLSVGQRQLVCLARALLRKTKILVLDEATAAVDLETDDLIQSTIRTQFEDCTVLTIAHRLNTIMDYTRVIVLDKGEIQEYGAPSDLLQQRGLFYSMAKDAGLV
# Substrate: NC(CCC(=O)NC(CNCC(=O)O)CSCCN1C(=O)C=CC1=O)C(=O)O
# Test: TP_TRANSPORTER: uptake in membrane vesicles from MRP1-expressing Sf9 cells
# Format: functional, cell membranes, Membrane vesicle
protein,measurement,value
B1,Km,155 µM
